Data set [1] deals with egl-13 (T22B7.1) (Caenorhabditis elegans) (UniProt Q23045).
Data set [2] has as its target T1, nhr-5 (Y73F8A.21) (Caenorhabditis elegans) (UniProt Q9NA51).
T1 sequence: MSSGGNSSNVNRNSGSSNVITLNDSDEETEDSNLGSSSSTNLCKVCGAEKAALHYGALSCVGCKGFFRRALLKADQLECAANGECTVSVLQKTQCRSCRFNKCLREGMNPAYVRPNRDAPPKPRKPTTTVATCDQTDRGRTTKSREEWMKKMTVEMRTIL

In data set [3] the target is T2, daf-12 (F11A1.3) (Caenorhabditis elegans) (UniProt G5EFF5).
T2 sequence: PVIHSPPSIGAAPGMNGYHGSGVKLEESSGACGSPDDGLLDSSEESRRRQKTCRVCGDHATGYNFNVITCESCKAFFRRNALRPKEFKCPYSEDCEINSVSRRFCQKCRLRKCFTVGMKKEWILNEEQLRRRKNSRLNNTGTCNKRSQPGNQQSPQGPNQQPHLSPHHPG

Data set [4] concerns the target T3, elt-6 (F52C12.5) (Caenorhabditis elegans) (UniProt G5EGN3).
T3 sequence: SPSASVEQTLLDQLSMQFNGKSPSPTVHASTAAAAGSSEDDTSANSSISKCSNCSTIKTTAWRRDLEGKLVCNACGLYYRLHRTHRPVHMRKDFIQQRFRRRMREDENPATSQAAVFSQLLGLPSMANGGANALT

Data set [5] deals with T4, elt-7 (C18G1.2) (Caenorhabditis elegans) (UniProt O61924).
T4 sequence: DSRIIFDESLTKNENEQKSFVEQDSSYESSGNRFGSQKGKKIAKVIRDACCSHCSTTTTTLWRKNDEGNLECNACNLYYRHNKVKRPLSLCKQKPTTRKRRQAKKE

The target in data set [6] is T5, mnm-2 (C10A4.8) (Caenorhabditis elegans) (UniProt Q17895).
T5 sequence: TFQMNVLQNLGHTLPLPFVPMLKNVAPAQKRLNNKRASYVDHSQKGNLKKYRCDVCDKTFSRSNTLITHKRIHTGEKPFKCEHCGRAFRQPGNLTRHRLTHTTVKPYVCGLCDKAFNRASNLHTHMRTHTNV

The target in data set [7] is T6, let-381 (F26B1.7) (Caenorhabditis elegans) (UniProt P91278).
T6 sequence: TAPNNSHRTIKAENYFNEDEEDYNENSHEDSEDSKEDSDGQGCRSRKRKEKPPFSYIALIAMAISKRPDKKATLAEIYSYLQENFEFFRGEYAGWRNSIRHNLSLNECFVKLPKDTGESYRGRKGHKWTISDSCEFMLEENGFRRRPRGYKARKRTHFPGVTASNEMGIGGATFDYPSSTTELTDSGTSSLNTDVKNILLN

For data set [8], the target named is T7, fkh-9 (K03C7.2) (Caenorhabditis elegans) (UniProt Q21187).
T7 sequence: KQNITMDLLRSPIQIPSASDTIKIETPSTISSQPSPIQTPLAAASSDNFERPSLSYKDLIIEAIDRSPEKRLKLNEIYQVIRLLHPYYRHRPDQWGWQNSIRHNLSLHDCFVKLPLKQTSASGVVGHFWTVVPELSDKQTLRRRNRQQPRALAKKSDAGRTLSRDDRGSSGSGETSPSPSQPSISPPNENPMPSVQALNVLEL

Data set [9] concerns the target T8, daf-19 (F33H1.1) (Caenorhabditis elegans) (UniProt Q09555).
T8 sequence: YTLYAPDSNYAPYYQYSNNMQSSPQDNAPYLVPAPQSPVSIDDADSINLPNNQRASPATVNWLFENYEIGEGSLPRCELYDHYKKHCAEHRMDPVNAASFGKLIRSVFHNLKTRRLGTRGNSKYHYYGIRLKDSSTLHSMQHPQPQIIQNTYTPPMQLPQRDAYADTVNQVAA

The target in data set [10] is T9, tbx-33 (Y66A7A.8) (Caenorhabditis elegans) (UniProt O45291).
T9 sequence: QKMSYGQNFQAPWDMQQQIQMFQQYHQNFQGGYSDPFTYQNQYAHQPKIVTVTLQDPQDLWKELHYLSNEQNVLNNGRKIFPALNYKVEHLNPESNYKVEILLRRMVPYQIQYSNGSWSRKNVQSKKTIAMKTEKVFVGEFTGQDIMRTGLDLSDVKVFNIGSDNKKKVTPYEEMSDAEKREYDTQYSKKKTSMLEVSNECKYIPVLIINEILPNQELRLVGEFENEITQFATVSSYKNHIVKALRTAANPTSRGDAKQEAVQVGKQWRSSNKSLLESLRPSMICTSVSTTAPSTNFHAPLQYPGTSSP

Chain of egl-13 (T22B7.1) (Caenorhabditis elegans) (Q23045 279-447): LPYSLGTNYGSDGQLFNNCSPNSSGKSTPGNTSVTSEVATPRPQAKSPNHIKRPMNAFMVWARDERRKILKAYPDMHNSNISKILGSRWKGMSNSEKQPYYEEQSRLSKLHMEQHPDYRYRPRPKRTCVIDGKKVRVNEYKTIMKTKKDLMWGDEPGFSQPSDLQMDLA

Turning to “AAACAATA (double strand) [8-mer AAACAATA]”, the binding signal (PBM E-score (-0.5 to 0.5)) in data set [1] amounted to 0.469. “AAAGAACG (double strand) [8-mer AAAGAACG]” yielded a binding signal (PBM E-score (-0.5 to 0.5)) in data set [2] of 0.458. Turning to “AAAGTACA (double strand) [8-mer AAAGTACA]”, the binding signal (PBM E-score (-0.5 to 0.5)) in [3] was 0.497; in data set [2] it was 0.482. Consider “AAAGTACG (double strand) [8-mer AAAGTACG]”, for which the binding signal (PBM E-score (-0.5 to 0.5)) in data set [2] came out at 0.462. Still for that read-out and setting: as for “AAAGTTCA (double strand) [8-mer AAAGTTCA]”, the figure is 0.46. “AACAATAA (double strand) [8-mer AACAATAA]”: the binding signal (PBM E-score (-0.5 to 0.5)) in [1] was 0.462.

As for “AACAATAC (double strand) [8-mer AACAATAC]”, the binding signal (PBM E-score (-0.5 to 0.5)) in data set [1] was 0.453. The same measure, in the same setting: as for “AACAATAG (double strand) [8-mer AACAATAG]”, the figure is 0.485. Consider “AAGTACAC (double strand) [8-mer AAGTACAC]”, for which the binding signal (PBM E-score (-0.5 to 0.5)) in data set [3] worked out at 0.492; in [2], 0.457. Consider “AAGTGCAC (double strand) [8-mer AAGTGCAC]”, for which the figures for the binding signal (PBM E-score (-0.5 to 0.5)) in [3] and in [2] were 0.498 and 0.453, respectively. With “ACAACAAT (double strand) [8-mer ACAACAAT]”, the binding signal (PBM E-score (-0.5 to 0.5)) in data set [1] worked out at 0.455. Consider “ACTGATAA (double strand) [8-mer ACTGATAA]”, for which the binding signal (PBM E-score (-0.5 to 0.5)) turned out to be 0.496 in [4] and 0.476 in data set [5]. For the sequence “AGAACAAT (double strand) [8-mer AGAACAAT]”, the binding signal (PBM E-score (-0.5 to 0.5)) in data set [1] amounted to 0.469. Sequence “AGAGTACA (double strand) [8-mer AGAGTACA]” showed a binding signal (PBM E-score (-0.5 to 0.5)) in [2] of 0.48. “AGCGCATC (double strand) [8-mer AGCGCATC]” yielded a binding signal (PBM E-score (-0.5 to 0.5)) in data set [6] of 0.459.

As for “AGTAAACA (double strand) [8-mer AGTAAACA]”, the binding signal (PBM E-score (-0.5 to 0.5)) in [7] worked out at 0.457; in data set [8], 0.485. Sequence “AGTACACT (double strand) [8-mer AGTACACT]” showed a binding signal (PBM E-score (-0.5 to 0.5)) in data set [2] of 0.454. With “AGTGCACT (double strand) [8-mer AGTGCACT]”, the binding signal (PBM E-score (-0.5 to 0.5)) stood at 0.497 in data set [3] and 0.456 in data set [2]. With “ATAAACAA (double strand) [8-mer ATAAACAA]”, the binding signal (PBM E-score (-0.5 to 0.5)) in [7] amounted to 0.489; in data set [8], 0.485. As to “ATAACAAT (double strand) [8-mer ATAACAAT]”, the binding signal (PBM E-score (-0.5 to 0.5)) in data set [1] worked out at 0.471.

In turn, “ATAGCAAC (double strand) [8-mer ATAGCAAC]” came in with a binding signal (PBM E-score (-0.5 to 0.5)) in data set [9] of 0.489. For “ATAGTACA (double strand) [8-mer ATAGTACA]”, in data set [2], the binding signal (PBM E-score (-0.5 to 0.5)) is 0.452. With “ATCACCAC (double strand) [8-mer ATCACCAC]”, the binding signal (PBM E-score (-0.5 to 0.5)) in data set [10] worked out at 0.459. Same read-out and setting: as for “ATCGCCAC (double strand) [8-mer ATCGCCAC]”, the figure is 0.49. Still for that read-out and setting: as for “ATCGCCAG (double strand) [8-mer ATCGCCAG]”, the figure is 0.473; as for “ATCGTCAC (double strand) [8-mer ATCGTCAC]”, 0.487. On the same count and under the same terms, the value for “ATCTCCAC (double strand) [8-mer ATCTCCAC]” was 0.485. For “ATGATAAG (double strand) [8-mer ATGATAAG]”, the binding signal (PBM E-score (-0.5 to 0.5)) in data set [4] came out at 0.491; in data set [5] it was 0.457.

In turn, “ATGGCAAC (double strand) [8-mer ATGGCAAC]” displayed a binding signal (PBM E-score (-0.5 to 0.5)) in data set [9] of 0.468. For the sequence “CCTTATCA (double strand) [8-mer CCTTATCA]”, the values for the binding signal (PBM E-score (-0.5 to 0.5)) in data set [4] and in data set [5] were 0.496 and 0.469, respectively. For “CGTTATCA (double strand) [8-mer CGTTATCA]”, in that order: 0.493 and 0.478. In data set [9], “CGTTGCTA (double strand) [8-mer CGTTGCTA]” returned a binding signal (PBM E-score (-0.5 to 0.5)) of 0.489. Same read-out and setting: as for “CTAGCAAC (double strand) [8-mer CTAGCAAC]”, the figure is 0.484. Consider “CTGATAAC (double strand) [8-mer CTGATAAC]”, for which the binding signal (PBM E-score (-0.5 to 0.5)) in data set [4] amounted to 0.493; in data set [5] it was 0.467. On to “CTGATAAG (double strand) [8-mer CTGATAAG]”, for which the binding signal (PBM E-score (-0.5 to 0.5)) in [4] amounted to 0.496; in data set [5], 0.472. In turn, “GAACAATA (double strand) [8-mer GAACAATA]” yielded a binding signal (PBM E-score (-0.5 to 0.5)) in data set [1] of 0.478. As for “GAAGTGCA (double strand) [8-mer GAAGTGCA]”, the binding signal (PBM E-score (-0.5 to 0.5)) was 0.491 in [3] and 0.459 in [6].

“GAGTACAC (double strand) [8-mer GAGTACAC]” yielded a binding signal (PBM E-score (-0.5 to 0.5)) in data set [2] of 0.461. “GATGCGCA (double strand) [8-mer GATGCGCA]”: in [6], the binding signal (PBM E-score (-0.5 to 0.5)) is 0.484. “GATGCGCC (double strand) [8-mer GATGCGCC]” displayed a binding signal (PBM E-score (-0.5 to 0.5)) in [6] of 0.464.

In data set [6], “GATGTGCA (double strand) [8-mer GATGTGCA]” yielded a binding signal (PBM E-score (-0.5 to 0.5)) of 0.457. On the same count and under the same terms, as for “GCACATCC (double strand) [8-mer GCACATCC]”, the figure is 0.46; as for “GCCGTTCC (double strand) [8-mer GCCGTTCC]”, 0.469; as for “GCGCATCA (double strand) [8-mer GCGCATCA]”, 0.47. Consider “GCGCATCC (double strand) [8-mer GCGCATCC]”, for which the binding signal (PBM E-score (-0.5 to 0.5)) in data set [6] stood at 0.487. The same measure, in the same setting: the value for “GCGGATCC (double strand) [8-mer GCGGATCC]” was 0.472; that for “GCGTATCC (double strand) [8-mer GCGTATCC]” was 0.454. Regarding “GCTGATAA (double strand) [8-mer GCTGATAA]”, the binding signal (PBM E-score (-0.5 to 0.5)) in data set [4] came out at 0.493; in data set [5], 0.471. In the case of “GGTTGCTA (double strand) [8-mer GGTTGCTA]”, in data set [9], the binding signal (PBM E-score (-0.5 to 0.5)) worked out at 0.493. The same measure, in the same setting: as for “GTAACTAA (double strand) [8-mer GTAACTAA]”, the figure is 0.465; as for “GTAGCAAC (double strand) [8-mer GTAGCAAC]”, 0.46; as for “GTTGCTAA (double strand) [8-mer GTTGCTAA]”, 0.487.

In turn, “TAACAATA (double strand) [8-mer TAACAATA]” gave a binding signal (PBM E-score (-0.5 to 0.5)) in data set [1] of 0.464. On to “TAGCAACA (double strand) [8-mer TAGCAACA]”, for which, in data set [9], the binding signal (PBM E-score (-0.5 to 0.5)) was 0.474. In turn, “TATGATAA (double strand) [8-mer TATGATAA]” came in with a binding signal (PBM E-score (-0.5 to 0.5)) in data set [5] of 0.457. With “TGATAACA (double strand) [8-mer TGATAACA]”, the binding signal (PBM E-score (-0.5 to 0.5)) in [4] is 0.492; in data set [5], 0.458.

These data come from publication PMC4434323.
